The values below come from the NTF2 design screens of Basanta et al. (2020).

The data set is described as follows: protease stability score; higher = more stable; yeast display proteolysis, trypsin and chymotrypsin.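 Further: log10 excess protease needed over predicted unfolded state with 0 meaning unfolded.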

“DEDAVRKAIELFKQQETGNPEEVKKLADPNARMVVGDKTFTGMDTINEHLRKLRKEARIRNDIKRYEVNGDKATIEFRQERDHNGRPDTHLVKITIKVTNGRVKVIEIQDKS”: the protease stability score is 0.175.

“DEDAVRKAKQWVKALRDGDEDELREQVDPNARINVGDKTFHGMDEFVKDVLKTHSEQRVNFDIKSVNASNGRVDMKMDATFDINGEPKTFSLVLTVDFHNGRAKQLEVKFDPKVKEDLTK” displayed a protease stability score of 0.769. The sequence “DEDAVRLAHKFQDVLNKGDPDKAMRLADPNARVQIGDTEIRGREQLSHHVNEMSNSIRFDLKHVDAQTRGDHVDVRVDQINEVDGRPTRNTDKMTIQIKNGKIVNVNVRVDEDRKQQERD” registered a protease stability score of -0.632. Under “DEDAVRNASTMVEAERRGDENTIQKMMDKHATVKYGDTEVHGREDAARQIRKTHREIRIQVDHYTVEAHNGRVRVEIRVVVNVNGTPYEYHYDYYAEVHNGKFKHIEINVDPDLEDKLKK” stands -0.16; under “DEDAVRRVKDMIRNLKSGNPDDAARYADPNARFDIGDWHIDGRKQLVKKLRDITRHMRYKFEMRSVDVTGNKLKFKATAHVSVNGRPITYHMTASIIVHNGHVTHVDQQLPEELLKRIEQ”, 0.785.

Regarding “DEDAVRVMETYMKIYETGNPEELNRLVDPNVKFNIGDQRIKGREHARKFWRKILQHSRVELRRLDVHTRPNRVEARAEVVVNHNGKPKNFQFTFSAHLHNGRIKEVTIKHSK”, the protease stability score stood at 1.34. Under “DEDAYRKLDTFKKVEEKGDTDRLRKLADPNVEIQVGDRQIRGMHHFAKDVHDKKRHIDIDVHIDEYDVDGNKIQIHAHNKQHVNGKPFNFTVVMWVRIHNGSIKKMKYRIDPDQLRKIRR” stands 0.227; under “DEDDANQVERDLRENDWDQLVRNFDEDARIQIGDYTIHGREDYKRWLEEVEKQVDKVEIKQVDIHGNNIVVDYRQQVNGQHVRAIMVITMDNGKIKEMHVDVRSEDAKRAYERIFR”, 0.525; under “DEDDANRVAQEILRALIEGDEKKVADLVDEDARISIGDHKFRGREQIREAVREFTEEVDHVKLESITADNGHAEATAILDINGKNQRVTFHVEVHNGRAKEVSMTSG”, 1.05. To “DEDDARKVRKLAKTNDWDELVHRFRDDVRFKVGNQRYSGRENAQTVAQELRKKVDHIRITSLHSTPGHVVLHMTMVVNGRKITVVIFIRMDNGRAVSFSLRVRDEEVKKHITQAFS” belongs 0.141; to “DEDDERQMEEVVETGDPDRMAENADPNVRVDVGDHEVHGRERAQKMWQQEKKQVDHLEVKEVHTENGRINADVVVVVNGRSLQVTVVASMHNGKIEYYSIQFTSEKQKKQWHDANG”, -0.048; to “DEDDKQEFAKSYNEVWKTGNEENAKRLFDENARMRVGDKEFHGHESIAHFLAEQVKRIDHIEFKQVDVQGEDMVFVFHFTVDGRKVHMTVKLRIHNGRIKDATINPQDIKKMEK”, 0.603. Under “DEDDKQRHAEKYAKLWQEGNEDELQKQMDPNAKVVVGEKRLKGREQIKKWLEEWRKHADEVQVISVSVEGERLVIRFRANINGKTYHDTQTMIYDNGEIQDVRFDPKWLHDLKR” stands 0.625; under “DEDDLERKDEEFQRLMKTGNFEELAQQADKDVRVQIGDKQLHGRRQIKKYQEEMQRKADHFDVKRVDIQGDTVDAVIENRHNGHHQVVRIQVNMHNGTIKEVTIHSS”, -0.02; under “DEDDLETLLKKIIDAMRNGDPKQMMRLVDENAKLVVGDKTVHGREEVSKWMKELRRQVDDNDYKDFHVQGDKARIDHFVNINGTNTERVIDIEVHNGRVKRLVYHEK”, 0.159.

On to “DEDDLQRKVERINSALQTNDEDEFVRQLDEDAKISVGDKTVHGQEKAREWVQDLRRTVDHIRVDHVKVHNGRAHVTMKAVVNGKNVEITMQMTLHNGKVKEMRIDPEDVEKLEG”, for which the protease stability score was determined as 0.807. To “DEDDLRHVEKVLRENDEDTFAEMADEDVSADIGDKTLTGREEVKKMLQKLHKQADHVEIKSVTNRGDNVKVDMVMNYNGRNLRFSRSAEFTNGRIKHVSIRVTSEEDQDVLQRLLD” belongs 0.811.

The sequence “DEDDLRRAQKDLQQNDFHKIARDADENVRVRIGDTTYHGRETLISFLKEMQDRADHVSIKHISVEGDKITADFEMQVDGKTDTFDLFIVVHNGRYQHVHFEVRSEDFSKFMREIES” came in with a protease stability score of 1.02. Under “DEDDLRRIIKEFQKALKTGDTDEIRRQIDPNAHARYGDKEVHGREQLLSRLDELMNNVDHMQIDDLTFRGDKATVDFVMNHNGHERRHILHMVVHNGTIKSAHLDDS” stands 1.01.

“DEDDLRRLAEDFVRVLKTGDEDRLSELFDPNAKVSVGDHEYHGSENIVRALVEFARRVDELEVNSITIENGRVKIDAFATVNGKRVSVIIEIQYHNGRAKYVEFKYTSEEENRRFKN” had a protease stability score of 0.466. Under “DEDDLRRRANEVAEVLHDNDEESMKSLVDPNADIEIGDKRLHGRDDMEKWMQERKRRVDHLTLHSFNVHNGRVDIDARVEVNGQQERYRMVVEFHNGVAKHINFTST” stands 0.569; under “DEDDLVRQMVDRAEEAAQTGDEKKFANLFDPNARFRYGDKDVHGREEWEKRLDEERKRADRLHIKFDSVRVHGDKVDLHFTWRVVVNGESSERVVIIHAVKQGDRIVAKYVREG”, 0.611. In turn, “DEDDMRKWEELMRAFETGDEKKATELVDPNATFKVGDKTYHGREHFIKDLFTKVKEIHIQMRIRDIQQSGDFAVVHLVKSNHNNGKPNSDVAVVLVRMDNGKLKYVQETKDQ” yielded a protease stability score of 0.587. Under “DEDDMRRLEQLFRDIQTGNPERVRTLVDKNAELRVGDKRIKGREDVHRSVKKNRDEIRYSIDRLSADVKGDQVEMTVTAQKEHNGEPRSFKFTMTAKFRNGKLQHLDVHEEK” stands -0.297; under “DEDDNKIAKEWYKAIQRGDPDRVKQLVDPNVKIRIGDKDIRGRENFATEVERMRDEIEVVFKVKDMKDQGDKANVEYEYQTQSNGRPRTKSQTVNVSMHNGHVKHVNVRDDQ”, -0.301.

The sequence “DEDDNRKMHKLMETGDFEKIAHHADPNAHAKYGDKTVTGKEELKSVFTKFNRAVDHVQVQDVRIRGDKVTLDAEVNVNGQTVQVTVSARAHNGQIKHFKIQARDEQIQRDIKDALE” displayed a protease stability score of 0.845.

“DEDDQERKLRKIAKNITKGDKTSLLKMVDKDAKASVGDKTVEGDNQLKRVMEERTRRIDHLDLKDVKVTGNTLVVHYVIHHNGKNKHQVAFVVLDNGRIKSMSFHDG” gave a protease stability score of -0.08. Under “DEDDQKLITEFLKALERGDPDRLLENADPNASARVGDKDVHGMHNAATDWVRERNSMDVTYDSVEIHVHNGRATIHLDAQFDFNGKPWRDTMTVEIVIRNGKIKDIIFRFDEQQLRDITK” stands 0.714. To “DEDDQKNFSQMLNALDTGDEKRVVELADPNAKVEYGDKTYSGMEKYAHDRAKQRKEWRYHQTIDKVNVKNGRVEIHMKANFKINGQPRSMRFSVTVEAHNGKLKNLDFRFSEEDRKKLEG” belongs -0.024; to “DEDDQLRKLLEEIVDALDRGNESELRNLMDKDVRVDVGDKTITGRENAAEFLIRLANEADEIDINITDLKVDNGNISLRFQLHLHHNGRNVTRQVTIVIDRKGDELKVKYIRMS”, 0.031.

Turning to “DEDDQRRKAETLVRQISTGNPDDLKKMVDPNVKVKVGDKEYHGREEMAKDIKHIEDAVDHLEVKSVDAHNGRIDIVIVMHINGTRVHMRVEFQLNNGKVKSAERRYTDQDQKNTFER”, the protease stability score is -0.39. Under “DEDDQVRKILETQDRAMRTGDEDTYVNQADKDVRVKVGDKKLRGREEWKKEVTRIIERVDHFDVHIDHIDHQGDKIVIRQVIVLEHDGRRDSKTYNMTARNKNGRVKWKEVTEK” stands -0.205; under “DEDDRKRVAKEFMDNLNTGNEDEALKLADKDARLRYGDKTLHGREQIKDWLHTLRERIDSIEVHRIEVQGDKVRVRASVVINGKEEMVDINFRMSNGRLEKVTFDPRLDEMLKG”, 1.44. Under “DEDDRRRQARKLASALVTGNHQEVRELADKDVHAEYGDRRYRGREKLDEAAKDMHKQADSLTVRDVKFTGDKVNIDLQLNINGRRLTVSLTAQLENGRFKEIVVQVTDPETLRHVKQ” stands -0.03. Under “DEDDVDRVRNLIHALNKGNPDDVNNQADENVRFVIGDKTFHGKETLRTRIEEQKSHSRYQVDSVHAEARNGQVEVHVNMTMTENGQPRKNTYEIQARVHNGRVKDFRMTESR” stands -0.336; under “DEDDVNKAHNILKHGDWEKFASQADENVRIHIGNKEVNGRERASEVLKLIRDRVDSEEIKRMSFHGDKVVVDAEQVVNGKKVRFVIRVKAHNGRIKQMDFQFRNEEDKKKFDEAVN”, 0.477; under “DEDDVQHAQKLVEENDEDKLKRMFPPDARAHIGDKEVHGMDKWADILKTLHHKADSVHFKHVSVSGNSVNVNFVMVVDGQSIEFVLVIDVHNGRARRLRIDFRNEEQQKLFEKLIS”, 1.3.

As for “DEDDVRRVAEQIVQALEKGDEQRMMELADPNAKARVGEKDYHGREDLHKIVKELKDDFDHARVESVEVDGDKVVIHMVVKSNGKDRRMIIRFRVHNGKVTEMEFRTG”, the protease stability score is 1.75. In turn, “DEDDVRRVHEMIRAEETNNEHQVKDLMDENARMVVGDQEITGMDHILKFIRETNKEIDIELRLRDVKVSNGNVHVTARVRFTVNGKPVDRSAKMEVQVENGRIQDVQKRFPTEWKRERHK” displayed a protease stability score of -0.03. In turn, “DEDDWKKFMKFLKNLRNGDDEQAAKQADPNARFEYGDETIHGREHFRKHVKDTKDHARYSFNLKDYRVTPGRIEARMDVHSMENGRPDSNDVVLILSLSNGRIKKVEMKQVS” gave a protease stability score of 0.063.

Regarding “DEDDWRKRMKKVVEVLRTGNPDTMVDMVDENAKAKYGDKEYHGREQIHKWMEDRQKRYDHVNVKHMHIQGNKVNISAVYVVNGRSEDRQLQVVFDNGKIKSMRVTEQ”, the protease stability score was -0.053. “DEDEARKVMKKWQEVVQKGDPDDVRKLYKPNVKWEAADTRRQGVDVVVEQMKKVQDKGVEFQVRKAKVEGDRFQVVYDVKLGNDTATFTVQVEARGGQIDEVRAKVDEKAYKVMKKG” showed a protease stability score of 0.123.

In turn, “DEDEARTWANRMRKIIKEGDPKKMRHQLDKDAKAQVGDDTVHGRDKVVQLLQHILEHVDHVEIQHVEAQGNEVDIQVKLTVNGRDDSLKFDIKYHNGRVKTIRVQEQ” had a protease stability score of -0.084.

Consider “DEDEATKVATNMQEILETGNPDEAAKLADKDVRVVVGDKDVHGSENLKDMMRELRERADHLRVVDMHSHGEKFVLLVIIEHNGRRHQVNIVMTIDNGRIKSLSITSG”, for which the protease stability score was found to be 1.87. To “DEDEDDKMRKLIKTNNPQEIAQNADPNVEATVGNKTYHGREQMQQIAEIFRTMADHVHVDRVDADNGHVSAHRVITVNGHKVNVKVRFNISNGRIKRQEIDVTSEQDHRELEKNYN” belongs 0.162.

Sequence “DEDEDIRSWMKQFEEVVKTGDSKHAADMFDKNAKMQYGDKTYHGRDDVKSVLDHLLRRADHVRLELLDVKSNGESVHAVMLITFVVDGQTDSYHVELVFVVDNGRRNLHTATTK” returned a protease stability score of 0.872. Turning to “DEDEDKRIQEVLEQNDFETLSKQADENAKVQYGDTEVHGRRKAYEYLRRLKRSIDHIHYHSIHVHNGRAKMTAEAHFNGRKAVFIVVLQFENGRIRMVVFRATDSRIKKIIKEALN”, the protease stability score came out at 0.988.
